{
  "source": "the DeepSol protein solubility set",
  "data": [
    {"assay": "soluble on expression in E. coli; label from the status in PepcDB or PDB records", "values": [
      {"sequence": "MNPLLFNDRTLKGSGVLARVTPTGTQYVASVVAAAFSSHFADIKPPKERKDHQLTTISTVTLRRLMLETLQLDKQLVTTTTSDGLLRITVQNISVSSSAVLSGELREIKLQDNVTFRTANLRIDTAIRIMKNAGGNPALKMESCKIVTQGIKLVTKPMDPRNGKSLADAIANDANTMFSDLICSKIDHIVSNRVNQRFALLSSRISLEDSKNFDIVKIIMQAEERLKRLVRQNMLRSNKTIRRNVHAHNARRVSRDPVRGKRQADEDKFHLILNSFNFSRADSLMLDYSMLSPPSLTSRGIELQTSGEVFQKGHVTPFGAGPIFLPRIPNPSQMLQIVVSDFVPNSLMFHGHRIKLFDTRIDWMTPQFGPVMRTTCDLSTGSLFCIGDLFPALREMLPDRNVAFLFTTLRAPAVIMQPEEKGGIHFSLRGLIRLVSDRNEPIGEMEIRIEALMKMKLTSKSVKGKVTIEEIQFTSRSPRILLQEELDDAGFLSREILQRMVNDILRQGIPIPIHPLFKLVKPKLTLLSRSMLLETNFLLNEHIIAQLTAEALVA", "soluble on expression in E. coli": "not soluble"},
      {"sequence": "MSLVENLSLEPQPKRRKIDPEVKESPSRNCSHWFVRNKVCASCNTIVDNYQGRSFDYLYTGIQMSNEALGFTKRLISQTSWLEDKKLHLVLDLDHTLVHTIKVSQLSESEKYITEEVESRKDLRRFNTGFPEESLIKLRSFVHQFLKECNEMFSLYVYTKGGYDYAQLVLEMIDPDKIYFGNRVITRRESPGFKTLDLVLADERGIVVVDDKSSVWPHDKKNLLQIARYKYFGDQSCLLSECKKKIDESDEKGPLNTALRFLMDVHEEFFCDWSRKDLDSVDVRPLLKEISLRWKRKADGVV", "soluble on expression in E. coli": "soluble"},
      {"sequence": "MASSTTFVIVGGGLAGAKAVEALRRSDFGGRIILFGDEEHLPYDRPPLSKEFLAGKKSLSDFTIQTSDWYRDHDVDVRLGVRVSSLDRSAHTVELPDGAAVRYDKLLLATGSAPRRPPIPGSDAAGVHYLRSYNDAVALNSVLVQGSSLAVVGAGWIGLEVAASARQRGVDVTVVETAIQPLLAALGEAVGKVFADLHRDQGVDLRLQTQLEEITAADGKATGLKMRDGSTVAADAVLVAVGAKPNVELAQQAGLAMGEGGVLVDASLRTSDPDIYAVGDIAAAEHPLLGTRVRTEHWANALKQPAVAAAGMLGRPGEYAELPYLFTDQYDLGMEYVGHAPSCDRVVFRGNVAGREFLSFWLDGDSRVLAGMNVNVWDVVDDVKGLIRSGNPVDVDRLVDPQWPLADLTTN", "soluble on expression in E. coli": "not soluble"},
      {"sequence": "MASSPQLEEEAAGKLETIHASAMAKSKKKTDVVDSTNLPILELLSLKAPIFQSLLHPELPIIITGFGTGHIVCHRYDPAKLQSHLDRRRRIDTATTGKDAKKGVCPWIRLDIDLETGDLKFVDIEEQQQQKQTGKDEDLGVKTLWKTKRHKGSVRAMCFDSKGDNIFSVGSDNVLKKANTMTGKVVKKVNLSSLFNSEEKKNDKFTKLCASQTHPFILIGDESGNIHVINSENLALSNSIRSIHFGDSINDIFHFDKRSAYKFISLGQTTLAYFDVRDKDAKPNVAGNEDGKILISDDQEDEVLCGCFVDPEVADTLLCGMGEGIVTVWKPNKNDLEDQMSRIKISKDESIDCIVPTLQDDNCVWCGCSNGNIYKVNAKLGKVVEIRNHSELDEVSFVDLDFEYRVVSGGLENIKIWELSSDDVEENASVESDSDEPLSHSDEDLSDDTSSDDETTLVGLSKEELLDELDKDLKEDHQEEKESNSKSVKKRKIMKENNKKKDLYEHGIKKFDDL", "soluble on expression in E. coli": "soluble"},
      {"sequence": "MAHHHHHHMSESPMCLFIACSTRDNTSREYIYTILKNRLLGSHVCIDTNILDVPTNLKFCSFDDLLKCADDLQKYDSYAYGCLKKIEKLAKEYDENIELKIIYQRQHINIDQYIRRFTWDDAKYPRNRSLTDTIDVMVNNITKLSDEIHIKSSMLNDLKEKKKKDIPKTDTNNFFLKNLNEILTPQTVSQADFMETEYLTTLIAYIPKNSVDEWLASYEKFSQYVVPRSTEQFKGLVDKDGNTLWKVYVFKKFAESFKEAAKLKKFVVKSFKYDEQKYNDVMESRTKVEAEIIRQETFLRRMCLAAFSDIFSAFIHINILRVFCESVLRFGVPPNFASFSIRINGESKEKKVRKKLYDIFSSTDSIGKNYIKRSDENDEEIYPYVSVSFKI", "soluble on expression in E. coli": "not soluble"},
      {"sequence": "MAQVAIITASDSGIGKECALLLAQQGFDIGITWHSDEEGAKDTAREVVSHGVRAEIVQLDLGNLPEGALALEKLIQRLGRIDVLVNNAGAMTKAPFLDMAFDEWRKIFTVDVDGAFLCSQIAARQMVKQGQGGRIINITSVHEHTPLPDASAYTAAKHALGGLTKAMALELVRHKILVNAVAPGAIATPMNGMDDSDVKPDAEPSIPLRRFGATHEIASLVVWLCSEGANYTTGQSLIVDGGFMLANPQFNPE", "soluble on expression in E. coli": "soluble"},
      {"sequence": "MSLDEGRTPILGEHPRPTMVRDNCTMLNGWWDYAIVSIPEDETAPKWRKTAAMLTRDEAVRAVKETAIPQTFDGKILVPFSPESALSGVHQTIYPDNLLWYRTVVHPVTLGGEETVRQIGDANRLILHFEAVDYVCACYVNGQLAGTHVGGYLPFDVDISAFIDPDDAFEIALCVYDPNDSGTQLRGKQKIEREGIWYTAQSGIWQSVWLEIVPEAYLRTLTLKGASDGKLFVRAEIGGDKPNAKLHIVVTDPADGTVVADETLPAGVRKVRAEIATAAEHLWSPADPYLYDVRAELRYGSAKPAETAGDAAVVQSQPMDVVSSYCAFRSVEIKPDTKGVARFHLNGKPLFVKGVLDQGYWPDGLMTAPDDEALTHDITAMKNAGFNMLRKHIKIESARWYYHCDRLGMLVWQDAVSGGGTDGEYNAWTTNRKPTLIRSTWNKFRDDTAKHFTALGADDPIYRRDWSRTCDAMVHMLGGHPSIVTWTLFNEGWGQFDACDATERIHALDPTRPIDATSGWYDQHCGDYHSVHNYFRPLEIYPDKGPLRGYVAEFEKKHRRRRRAAHYVVLPVARHGVRAFVISEFGGLAQLVPEHAAVSRAYGYGEYDSIDDWRAAVRSVLASAAALESRGLAGYVYTQVSDVEEELNGLLTYDRRVDKFAEEGHHHHHH", "soluble on expression in E. coli": "not soluble"},
      {"sequence": "MPLQVDDVAERAFVRIVGALRSVRVTSERSQNSLSTFLPVRGRAISEWETGAIQPKLSHLIQWSWELDRRLVIVGRDGELRNDSLRQRPGESWEVFERRRLATPLRNRRQAMGMAQGELADLVGVTRDSIQRWELVRVPPRPIALIVWAQKLG", "soluble on expression in E. coli": "not soluble"},
      {"sequence": "METADTYTIVLTERNMGYAGQFYMVSKEGIGEAPISVGSGYGNPLMFSIKAVGSVTKGIMNDPYGEIGIRGPYGNVWPWKSYEHVVAIAGGIGIPPIKALIEDMQGHTSLDKLTVLYGARSPSDIVYRSEIETWKEEMDFRITVDKGDENWRGHVGVVTTLVPEIKEYNHGAAFVIGPPVMMKFSVKSLLDAGFAEDNIYLSLERRMECGIGVCGHCNIGRWYACEDGPIFKYSDTKEEPELFL", "soluble on expression in E. coli": "not soluble"},
      {"sequence": "MPHVICEPCIGVKDQSCVEVCPVECIYDGGDQFYIHPEECIDCGACVPACPVNAIYPEEDVPEQWKSYIEKNRKLAGLE", "soluble on expression in E. coli": "soluble"},
      {"sequence": "MPAPLSIVIPTLQAESSLPRLLEALIEGLPNGLIREVIVSDGGSQDATRAIAEAAGAQVLNGPPSRGGQLRHGCDAARGDWLLVLHADTLPDPGWAGVVADHIAAREDAACFRLAFRARGPGAAWVAGWANLRTRLFGLPYGDQGLLIRRRDYQTAGGYPDQLLMEDVHLVRALSRAPVLLPHRALTGAERYLRSGWLRRGARNLWTLMRYFAGTDPEALARAYRRLEHHHHHH", "soluble on expression in E. coli": "not soluble"},
      {"sequence": "MSLVHPAGMAIMISGGIVQKIAPSDDILSEFAPWYPANSVSTDVEVIDIGEMSVVPGFVDSHTHLPWSGDRTNELTMRLRGKTYREIAQSGGGIMKTVSHTRSTPKRNLVASGISRVQECMRNGTTTLEAKSGYGLDLDSEVKLLEAISEIDRSTAIDIRATWLGAHDFPPEMGREDYVEHLISDQLPVISELSLARWVDVFCEQGWFTNEQTEDIVKASKDYGMKSRLHVDEFVDSGGLALAAELGSVSADHVACSNDDSRVSAAESGTVQTFLPGTPYVLGKSLELPIKKCITEDWPFSIATDFNPNCPITSLPLIGSFVTHRLGVDPIASLVAVTRNPATTMFDEEEPRGVISEGSIADMNVLWSSSADSWCQTPGSSPVRDTIKNGIIVNSNKTYEGHHHHHH", "soluble on expression in E. coli": "soluble"},
      {"sequence": "MSLAMINDSIEQVWRDFSIRPAAEADDATWCRRVYLDVIGRIPSLEELSEFMSDRDSNKRANLVDRLLNDDRYTEEYANHWSTVWTNLLIGRSGGTDRRDLTNRTGMQKYLRDSFAGNKTYDQMTYELVTAEGSTTPGNANFNGAVNFLVDKVNAEKGTLATSSVSRIFLGQQVQCTQCHNHPFNQWKQQKFWEFNAFFRQTRALRRFVDGTQDIESAELVSQDFAGEANDPEDALVFYELRNGLQKVAYPVFTDGTEIEKSGFVEDVNRREELGRLMLQSEYLDKMIVNRMWSMFLGYGFTRPIDDLGPHNPSSHPELLENLGKEFRANSYDLKKLITWITLSRPYQLASTLSASNEIDDPTIGESPKFSRFYLRQMSAEQLYASMVTASNAQSKGSYEQQEAERRRWLSQFVVAFGNDEGTETTTFNGSIPQALMLFNGDLTKNAISLEAGSFLDQLSQTGRSPKDRVTRLFLSGLARRPTKNEVSIASKLLVARKGDEPEMLQDMWWAILNSNEFIMQHEGHHHHHH", "soluble on expression in E. coli": "soluble"},
      {"sequence": "MVKIVELQEKESLYYCTKDEDHFFDRKAFGLKGEKVQKIAVAFANADGGEILVGIADDKDEVIPEKRWQGQESTEAYNSVIQALSELVPSVDFRFDFLTRVNESRNYVLRVKINKGLSVHETAKKKIFLRQGAQSLPVTAPIKILELTHAKGIISEEDSLVNSASIDELDSSIELTKFLSELPIRAPDPITFLLKEKLVDSETWAPTVAAVLLFAENPSAELPKQCAIRIVRYDTDGEDIDRDALTEDNIAIEGSLYQQIQDAYSKIELFLSKNKVWKVEGLVETKYPKETIWEILVNTVIHRDYAISDNVLVSIFNNRIEFKSPGRFTGFVTAENILENRCSRNSKIVRILSKYKDSPNKDLGEGMNTAFQRMRSMGLRDPEILEDGNYVKIILRHSSNDDPETLIMKFIESNGEINNRQARDLTGIDRTEKVTYQFSKLRDKGLIQRKDSSTGLKSSWIAVLEHHHHHH", "soluble on expression in E. coli": "not soluble"},
      {"sequence": "MGSDKIHHHHHHMECHIDLHNTVIQRRVPRDGRAAKHIGIAVFNGFSLLDTVSIVEAFETANRFAEASRHDAPRYVVRLLSSAGGRIASSSSVFVWTDSVEARGHAHDFHALFIAGGTGVHDAARDGRLLAWLRRTHLRSENVLSIAEGQFLLEAAGFASSAGIGSARGLVPRHYFRRETDPATQREVSSPLESALNLIEADLGTEITCKAAASLAPRASTQFTSVLNRNASGSVSDKIRASAQWLEANGHQPISIDRAAGIAAMSERNFLRRFKAEIGVTPSGYLLYVRLDMSCRLLVETALPVDKIARRCGFGDGGQLARLFRKHMGTTPSEYRNSHRQPHDR", "soluble on expression in E. coli": "not soluble"},
      {"sequence": "MGSDKIHHHHHHMPKSKSQKNKLRPRDSKGRFTPLAKAKRTVVSRSRSRSRSASRGARQSRSVGRPMSRRNSVRSISTHTAKSPSLVLVISGSPSPRRRRPSTRRSSSRRSVVRSVSRGSKSRRSSSRGSVYGRTGRSRSSKRSRSRSRPRTRSGSRSSSRSRSGSRRSSRRRSRRRSSSKARGRRASTAKKTPAKRRSRSRSQQKVKRSMSRKG", "soluble on expression in E. coli": "not soluble"},
      {"sequence": "MGSDKIHHHHHHEILKVLRKNNDFQNWEEIKNRLHPIIIKHVEGEPVYQFFDTLNDNSFEKNGQLISLSTQPINSFVPYHIHNYVEMMVVLSGSCVIKTANEAITLNENEIIIIGCKTIHKVEPIDDKTIMIKIALKRAAFSLEDLVFLTHSHNAQSVSSIVFSLLSSDDSHGAFNVFRTHHDVHVVNKIYNIISEYYCPDDYSNQIIKLEILELFIRLIRIASKDAVFQTQKEVQNNNEIDLLTLLLYIERNYKTINLKSMAKYFNFNPNYLSSILREKTGYTFIKLVHLQRINVAAEYLALTNTPVEGISLAVGYENPSYFYKMFKKYMGCSPKEYRQKQIAG", "soluble on expression in E. coli": "not soluble"},
      {"sequence": "GMNQNKITAGGLEFLVRFAAPTDRLKINDLMIDTARWLKESGSTQWSDILHGFDVHNIEQRIELGEVALFETEAGALAGAMIIRKTPSDWDTDLWEDLAIDKAYYLHRIMVSRAFSGISLSKQMIYFAEKLGIEMSVPFIRLDCIESNETLNQMYVRYGFQFSGKKNGFYLYQKELSQK", "soluble on expression in E. coli": "soluble"}
    ]}
  ]
}
